A short description of this data set: soluble on expression in E. coli; label from the status in PepcDB or PDB records.
On to “MGSGILFVFAIGAIPSQAQDIGSTDRLNVENWQEWETVGEAQLTWFVFDIYRSRLKAPNGQYLVSTDVSPHPFALEINYQRDISKQQLLEVTDEQWQKLGFPKSNRQQWITQLSFIFPSIKNGDELTYVTDGDKGQIIYRQAGTKTQKMVGEITDERMNDAFLSIWLSPKTEFPKLRKQLIGQVRP”, for which the “soluble on expression in E. coli” value is “not soluble”.
Under “MNNLSVNGSSNGLFAKPTIGRSEYGRVKVALAPGKGFMDWLRLTTNKHLAKRVSGGVDHVELMKHNTKDDCWVHLFGIVYDVTKYLDFHPGGIPELLRGAGRDATPLFNQYHAWVNYESMLKACVVGPFIGDLTKLPSPLPPTTSDDKNKLGVPSSALFSTDPSENGYGARVETLSDNSGISFEHDDWTELTEHNTSINTRGEENTEEHARLRVLIHHFWKPAMEFEFEPTPALCHVEYTLKIMKNRVEIRFSREISGGKIDRSKCKIQRRPGVTYHTTEIIDRYRLNHDTLIFSLQLPEHTTYRIPIGHHVSIKIRKGSMGKFSWKFFLIFGYSVLYRPYTPISNPDPQKIDFMIKIYSNGICTPSLENLKIGGELEISDPIGERNFAEWTENAQELILLAAGSGITPMIDIMEKRIQKTENSNSKVYFLMFNKTENDLQTGKPEENPKSTWKMADFYSKYRGDERIVMKNVLSASECPVETGEYFNGRVSTDLLNSIISTSSTASRRAFICGPDGFILAAKTALESLNLHSDQIHIFQG” stands “not soluble”; under “SLLSIIPISAGIPLTETEPKQKWLEEWSKQLFVKVSIDSEYGWGEVLPAAFNSPALYADIVKRLEPSLNGMEISEPGIIWEKLRKLTFSGGYGPVIGAISGVDIALWDLKAKLSKLYLGDIFGKNEQKIARYASLSRYANYEAVIRASKNIVESGFKAIKLHQTKDDTLESVKRFREEIGYGVDLMVDLNCAMNIDEAIKFANSVQRYELKWVEEPIWPPDDLASLKKINDIVPVAAGENFFDFFKFEDAVHLEALTYYQPDVTKVGGLTPTLKILDLLKKNHEQVAFHNRPHNGWIGIFASIAAARMNGVDALIETPPNGVPSQYFRYNAMITSEVIAPNGVGLSIEPIEPLPQPKDEKILIFHD”, “soluble”; under “MTVKIALLGFGTVASGVPFLLKENGGKINQSAHSDIKVAKVLVKDEDEKNRLLAAGNDFNFVTNVDDILSDQDITIVVELMGRIEPAKTFITRALEAGKHVVTANKDLLAVHGAELLEIAQANKVALYYEAAVAGGIPILRTLANSLASDKITRVLGVVNGTSNFMVTKMVEEGW”, “not soluble”.
As for “MSKEQAHAELKKDYLIHDEKIMLMQEIVDRQLAAVPDLYRVKDEVSIYIGIPFCPTKCAYCTFPAYAIQGQAGRVGSFLWGLHYEMQKIGEWLKEHDVKVTTIYFGGGTPTSITAEEMDLLYEEMVRSFPDVKNIREITVEAGRPDTITEEKLAVLNKYDIDRISINPQSYENETLKAIGRHHTVEETIEKYHLSRQHGMNNINMDLIIGLPGEGVKEFRHSLSETEKLMPESLTVHTLSFKR”, the entry is “not soluble”; as for “MVMVNFVKAGCSRWRCMLAKDTCIFTTFQMVPVSLCCCSYDRCNVGGNPVYSDNPKQIQNGGGNSGNWNSGGNNNGASGGSWGNGNANNNNNNNNGGSNNNGWGNNNDWSSNYNYGGSNAANEPKMTKQTVAGDDSWNKNKWTNKQVEDMFKKSIDDRGDEIQLEDDFKKIDKNYKTQSVPQESLRTLSARKEVEKIPFVAGKSSGVGAKTTASPTTGKSKEIQL”, “not soluble”; as for “GAMGDIDERNIFFELFDRYKLDKFSTWSLQSKKIENDPDFYKIRDDTVRESLFEEWCGE”, “soluble”.
As to “MGSDKIHHHHHHMNFAMTPEEAKTNEAYCRALIELLYQLADDDYIVAYRGSEWLGLAPHIEEDVAFSSITQNTMGHAVMFYELLEQLGEGDADTLAHERDPALRRNSVYLEKKNGSGTYLDEPHYDWALTVIRHFFYETFKKIRLEALTQSSYVPLAKAAQRVLMEQPYHLAHWKTWLCQLQQSTEEAKNRLMERIDEAWLEILDMLELGLKGGEMVEYQLITDEATIQQQWVKEMNKSLFYVPSQSLQKQEGNGRNGEHTDDLQQALSTCSEVYNSDRHAVW”, the “soluble on expression in E. coli” value is given as “not soluble”.
In the case of “MGSDKIHHHHHHMDNLLSIKSLCDEDIDFVTEISRKEGFAPGVGDLRIYQNTDKQGLWVGWLDNNPIGCIAGVRYNQYYGFLGLFLVIEEYRGRGFGLQLWKKALSHLSDLPCVGLEAAPERITDYSKWGFTISSKTTRWQLLGDGKLVEEYSKNDDFDDFSFVEGSSIPQDAVKKFDEKRETTPRPHFLSNWLNHPAGKVIAVIDKKNCCHGFGRIRPCLLQNGDGWRIGPLMADTPMLLQILLKKLIESHPGLIIIDAPGLNKSASEVFRKLGFKSESETFRMYRGSQPPVSMNDVYGLACLELG”, the “soluble on expression in E. coli” value is listed as “not soluble”.

The values above are taken from the DeepSol protein solubility set.
